Measurements published in patent US20030148958A1 (PROCTER AND GAMBLE, published 2003).
Ends that are not written are not given here.

Key:
[1] = target: T1, corticotropin releasing factor 2 receptor; test: cell-based or functional assay
T1 sequence (Q13324 whole entry, species assumed, looked up): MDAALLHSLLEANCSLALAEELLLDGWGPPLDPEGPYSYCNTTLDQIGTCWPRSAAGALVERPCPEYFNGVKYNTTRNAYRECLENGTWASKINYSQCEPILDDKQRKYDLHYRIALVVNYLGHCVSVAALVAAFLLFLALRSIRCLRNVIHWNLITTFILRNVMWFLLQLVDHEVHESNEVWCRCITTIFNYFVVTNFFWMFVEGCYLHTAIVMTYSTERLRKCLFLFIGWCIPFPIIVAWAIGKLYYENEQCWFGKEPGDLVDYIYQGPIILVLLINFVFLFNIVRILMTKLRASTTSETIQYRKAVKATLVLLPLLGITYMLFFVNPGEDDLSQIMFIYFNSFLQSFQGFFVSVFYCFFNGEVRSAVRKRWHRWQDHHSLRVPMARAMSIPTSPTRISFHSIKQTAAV

[2] = target: corticotropin releasing factor 1 receptor; test: cell-based or functional assay
Throughout, for CRF1R Emax: reference of the scale not given here.
Throughout, for CRF2R Emax: reference of the scale not given here.

| Binder | CRF2R EC50 [1] [nM] | CRF2R Emax [1] [%] | CRF1R EC50 [2] [nM] | CRF1R Emax [2] [%] |
| --- | --- | --- | --- | --- |
| DNPSLSIDLPFYLLRTLLELARTQSQRERAEQNAIIFASV-NH2 [SEQ ID NO 183] | 7.93 | 100 | 415 | 57.5 |
| ZGPPISIDLPHWLLRKMIEIEKQEKEKQQAANNRLLLDTI (C-terminal amide) [SEQ ID NO 186] | 25.1 | 100 | 323 | 100 |
| ZGPPISIDLPLFLLRKMIEIEKQEKEKQQAANNRLLLDTI (C-terminal amide) [SEQ ID NO 195] | 18.8 |  | 103 | 93 |
| ZGPPISIDLPIWLLRKMIEIEKQEKEKQQAANNRLLLDTI (C-terminal amide) [SEQ ID NO 192] | 66.8 | 97 | 562 | 99 |
| ZGPPISIDLPLVLLRKMIEIEKQEKEKQQAANNRLLLDTI (C-terminal amide) [SEQ ID NO 193] | 10.1 | 97 | 266 | 95 |
| ZGPPISIDLPLLLLRKMIEIEKQEKEKQQAANNRLLLDTI (C-terminal amide) [SEQ ID NO 188] | 14.6 | 100 | 162 | 96 |
| ZGPPISIDLPWFLLRKMIEIEKQEKEKQQAANNRLLLDTI (C-terminal amide) [SEQ ID NO 187] | 10.3 | 100 | 31.6 | 72 |
| ZGPPISIDLPLILLRKMIEIEKQEKEKQQAANNRLLLDTI (C-terminal amide) [SEQ ID NO 194] | 5 | 96 | 106 | 94 |
| DNPSLSIDLPFLLLRTLLELARTQSQRERAEQNAIIFASV-NH2 [SEQ ID NO 180] | 3.14 | 95.7 | 125 | 99.3 |
| ZGPPISIDLPFQLLRKMIEIEKQEKEKQQATTNRLLLATV (C-terminal amide) [SEQ ID NO 17] | 10.2 | 96 | 260 | 98 |
| ZGPPISIDLPFLLLRKMIEIEKQEKEKQQAANNRLLLDTI (C-terminal amide) [SEQ ID NO 191] | 8.3 | 100 | 63.7 | 65 |
| ZGPPISIDLPFQLLRKMIEIEKQEKEKQQATTNRLLLARV (C-terminal amide) [SEQ ID NO 19] | 7.42 | 75 | 232 | 83 |
| ZGPPISIDVPFQLLRKMIEIEKQEKEKQQATTNARILARV (C-terminal amide) [SEQ ID NO 172] | 13.5 | 100 | 1000 | 68 |
| ZGPPISIDLPFILLRKMIEIEKQEKEKQQAANNRLLLDTI (C-terminal amide) [SEQ ID NO 189] | 7 | 96 | 62.2 | 57 |
| ZGPPISIDLPFQLLRKMIEIEKQEKEKQQATTNRLLLDRV (C-terminal amide) [SEQ ID NO 18] | 5.29 | 97 | 106 | 100 |
| ZGPPISIDLPFVLLRKMIEIEKQEKEKQQAANNRLLLDTI (C-terminal amide) [SEQ ID NO 190] | 39.6 | 31 | > 100 | 9 |
| IVLSLDVPIGLLQILIEIEKQEKEKQQAATTNARILARV-NH2 [SEQ ID NO 168] | 4.9 | 75 | 1000 | 52 |
| DNPSLSIDLPFHLLRTLLELARTQSQRERAEQNAIIFASV-NH2 [SEQ ID NO 185] | 8.98 | 100 | 358 | 95.8 |
| DNPSLSIDLPFQLLRTLLELARTQSQRERAEQNAIIFASV-NH2 [SEQ ID NO 182] | 7.21 | 91.4 | 409 | 89.7 |

| Binder | CRF2R EC50 [1] [nM] | CRF2R Emax [1] [%] | CRF1R EC50 [2] [nM] | CRF1R Emax [2] [%] |
| --- | --- | --- | --- | --- |
| ZGPPISIDVPTYLLRILIEIEKQEKEKQQATTNARILARV (C-terminal amide) [SEQ ID NO 169] | 17.8 | 93 | 978 | 26 |
| ZGPPISIDVPTYLLRKMIEIEKQEKEKQQATTNARILARV (C-terminal amide) [SEQ ID NO 170] | 75 | 83 | 1000 | 9 |
| ZGPPISIDVPFQLLRILIEIEKQEKEKQQATTNARILARV (C-terminal amide) [SEQ ID NO 171] | 17.6 | 100 | 206 | 99 |
| DNPSLSIDLPFILLRTLLELARTQSQRERAEQNAIIFASV-NH2 [SEQ ID NO 181] | 5.22 | 97.8 | 154 | 100 |
| IVLSLDVPIGLLQILLEQEKQEKEKQQATTNARILARV-NH2 [SEQ ID NO 167] | 13 | 100 | 1000 | 15 |
| DNPSLSIDLPLFLLRTLLELARTQSQRERAEQNAIIFASV-NH2 [SEQ ID NO 178] | 5.17 | 96.5 | 1000 | 55.7 |
| SEEPPISLDVPIGLLQEVLEMARAEQLAQQAHSNRKLMEII-NH2 [SEQ ID NO 162] | > 100 | 7 | > 100 | 11 |
| DNPSLSIDLPTYLLRTLLELARTQSQRERAEQNAIIFASV-NH2 [SEQ ID NO 173] | 100 | 65.2 | 1000 | 6.05 |
| DNPSLSIDLPLYLLRTLLELARTQSQRERAEQNAIIFASV-NH2 [SEQ ID NO 177] | 5.63 | 97.7 | 613 | 69.2 |
| IVLSLDVPIGLLQILLEMARAEQLAQQAHSNRKLMEII-NH2 [SEQ ID NO 164] | 2.24 | 92 | > 100 | 26 |
| DNPSLSIDLPLLLLRTLLELARTQSQRERAEQNAIIFASV-NH2 [SEQ ID NO 174] | 4.42 | 97.2 | 1000 | 29.1 |
| DNPSLSIDLPLQLLRTLLELARTQSQRERAEQNAIIFASV-NH2 [SEQ ID NO 176] | 12.6 | 90.2 | 1000 | 26.9 |
| IVLSLDVPIGLLQEVLEMARAEQLAQQAHSNRKLMEII-NH2 [SEQ ID NO 165] | > 100 | 75 | > 100 | 19 |
| DNPSLSIDLPFFLLRTLLELARTQSQRERAEQNAIIFASV-NH2 [SEQ ID NO 184] | 3.72 | 96.5 | 486 | 77.3 |
| DNPSLSIDLPLHLLRTLLELARTQSQRERAEQNAIIFASV-NH2 [SEQ ID NO 179] | 10.2 | 92.5 | 477 | 78.9 |
| IVLSLDVPIGLLQILLEQARARAAREQATSNRKLMEII-NH2 [SEQ ID NO 163] | 4.49 | 96 | > 100 | 13 |
| IVLSLDVPIGLLQILIEIEKQEKEKQQAANNARILARV-NH2 [SEQ ID NO 166] | 3.7 | 99 | 438 | 95 |
| DNPSLSIDLPLILLRTLLELARTQSQRERAEQNAIIFASV-NH2 [SEQ ID NO 175] | 5.42 | 92.2 | 1000 | 34.8 |
